From patent US20220251159A1

Molecular target: fluorescently labeled WTp53DBD (MST assay) (UniProt P04637)
Assay: MST; FIG. 3D; myristoylated

Sequence of fluorescently labeled WTp53DBD (MST assay) (P04637 94-312): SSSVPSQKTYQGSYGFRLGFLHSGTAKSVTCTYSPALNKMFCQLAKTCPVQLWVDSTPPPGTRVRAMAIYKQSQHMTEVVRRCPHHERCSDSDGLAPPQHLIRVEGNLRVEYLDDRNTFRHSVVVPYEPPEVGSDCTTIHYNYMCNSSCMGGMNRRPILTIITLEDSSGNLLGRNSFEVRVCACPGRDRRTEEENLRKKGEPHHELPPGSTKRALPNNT

Work on pCAP-402 myr-HSTPHPD yielded a Kd of 30 µM.
